Tests used:
MBP [1] = biological target: T1, MBP (UniProt P0AEX9 27-396 = MBP); test: Native-PAGE mobility shift, Coomassie staining (Fig. 6D)
MBP [2] = biological target: T1, MBP; test: Native-PAGE mobility shift, Coomassie staining (Fig. 6C)

B1: 绿色荧光蛋白(GFP)纳米抗体 D5 (VHH)
VHH: DVQLQESGGGLVQPGGSLRLSCAASGIIFSIYDMGWYRQAPGKQRELVALITIHRSTNYEDSVKGRFTISRDNAKNTVYLQMNSLKPEDTAVYYCNANGVNYQYWGQGTQVTVSS
modifications: biotinylated (Sulfo-NHS-LC-biotin kit) in the ELISA of Example 5; not biotinylated in the Native-PAGE of Example 6
notes: Printed molecular weight 16.6 KDa; also called D5抗体; D5-biotin; not shown: Flag tag from vector pBAD24-Flag-His; C-terminal 6xHis tag from vector pBAD24-Flag-His
Q: Does B1 bind (MBP [1])?
A: no binding (tested: 3μg MBP和3μg纯化的纳米抗体)

B2: 绿色荧光蛋白(GFP)纳米抗体 A12 (VHH)
VHH: DVQLQESGGGLVQAGGSLRLSCAASGGTFSILSLGWFRQAPGKEREFVAAISRSEGSTDYADFVKGRFMISRENAKNTAYLQMNSLKPEDTAVYFCAASYARRLSTTASRVLYWGQGTQVTVSS
modifications: biotinylated (Sulfo-NHS-LC-biotin kit) in the ELISA of Example 5; not biotinylated in the Native-PAGE of Example 6
notes: Printed molecular weight 15.7 KDa; also called A12抗体; pADL-10b-A12-His; not shown: C-terminal 6xHis tag from vector pADL-10b-His
Q: Does B2 bind (MBP [2])?
A: no binding (tested: 3μg MBP和3μg纯化的纳米抗体)

B3: 绿色荧光蛋白(GFP)纳米抗体 E6 (VHH)
VHH: DVQLQESGGGLVQAGGSLRLSCAASGRFVSSYIMGWFRQAPGKEREAVASILRSVDATYYADSVKGRFTISRDNDKNTVYLQMNSLKPEDTAVYYCATRARGYFGSFGRLWPDDRQYDYWGQGTQVTVSS
modifications: biotinylated (Sulfo-NHS-LC-biotin kit) in the ELISA of Example 5; not biotinylated in the Native-PAGE of Example 6
notes: Printed molecular weight 18.4 KDa; also called E6抗体; pBAD24-Flag-E6-His; not shown: Flag tag from vector pBAD24-Flag-His; C-terminal 6xHis tag from vector pBAD24-Flag-His
Q: Does B3 bind (MBP [1])?
A: no binding (tested: 3μg MBP和3μg纯化的纳米抗体)

From CN108753792A (UNIV SUN YAT SEN, dated 2018)
